The series in a line: soluble on expression in E. coli; label from the status in PepcDB or PDB records.
With “MAHHHHHHMGIVRSRLHKRKITGGKTKIHRKRMKAELGRLPANTRLGARRVSPVRARGGNFKIRALRLDTGNFAWASEAIAHRVRLLDVVYNATSNELVRTKTLVKNCIVAVDAAPFKRWYAKHYGIDLDADKKSTKAAVAAEKKGRKSAHAAADKYDVNKASPKLQREWTRRRRNHRVEKAIADQLREGRVLARITSRPGQSGRADGILLEGAELQFYLKRLEKKKK”, the “soluble on expression in E. coli” value is “soluble”. In the case of “MGSDKIHHHHHHMSLASVFNIAGSGMSAQSTRLNTVASNIANAETVSSSVDKTYRARHPVFSTMFQQAQGDSGSLFADQDSSGAGVQVLGIVEDQSSLMPRYEPNHPAADANGYVYYPNVNVVEEMADMISASRAFQTNAEMMNTAKQMMQKVLTLGQ” it was “not soluble”; in that of “MIEPVLENVQPNSAASKAGLQAGDRIVKVDGQPLTQWVTFVMLVRDNPGKSLALEIERQGSPLSLTLIPESKPGNGKAIGFVGIEPKGKASPV”, “soluble”; in that of “MAKWLRDYLSFGGRRPPPQPPTPDYTESDILRAYRAQKNLDFEDPYEDAESRLEPDPAGPGDSKNPGDAKYGSPKHRLIKVEAADMARAKALLGGPGEELEADTEYLDPFDAQPHPAPPDDGYMEPYDAQWVMSELPGRGVQLYDTPYEEQDPETADGPPSGQKPRQSRMPQEDERPADEYDQPWEWKKDHISRAFAVQFDSPEWERTPGSAKELRRPPPRSPQPAERVDPALPLEKQPWFHGPLNRADAESLLSLCKEGSYLVRLSETNPQDCSLSLRSSQGFLHLKFARTRENQVVLGQHSGPFPSVPELVLHYSSRPLPVQGAEHLALLYPVVTQTP”, “soluble”. Consider “MRKLALVPIQFYRYAISPLMASHCRFYPSCSCYAYEAIDNHGLLRGGWLSIRRLGRCHPWNPGGYDPVPAVPTSRSSSMAELEHHHHHH”, for which the “soluble on expression in E. coli” value is listed as “not soluble”. In the case of “MGSDKIHHHHHHMTEQVTRRDVLGTGASVLGSLAIGSTTASGALQTDGTTVTFLHDTHVHGRFANASAGELSVARYFGLMNEITEDADTTLRVGNGDDLASSVLSAVFDGRHVVSTFNAGGLDFDTFGNHDFDMGPEVLRERVSDSLFTWVSANVREDGSVFAAEQGAQQYVLTDVGDVTLGVTGLITPEAPEVTSIGENTDVLAPASALQNVTERMRADGADAVIVLSHLASETARTVAEEVDGVDAIIGDHAASLLEEPEVINDTVLSFVGDEYEYLGELALGIDGSGVTDHEFVLHNVGESSAGTDPFVSLVQDHYETQLERQLDVVIGETTQPLDTRQSVVRARESNMGNFVADTIRTDVEADTALMNGGGIRTDRLYFEDASEDDPVAITRRVVVDILPFPNNVVELEVTGETLLAALENGVSRVEAGAGRFPQVSGITYTYDPTAESGDRIVDATAGGDPIDPDATYTLATNDFVSGGGDGYDMLSDATVLVSSNEGALLSDLIINTIEEQGTISPTTEGRITRQSEES” it was “not soluble”; in that of “MPFEIGTMPIMSIDPKLLEVLACPQDKGPLKYLEAEQVLVNERLEIAYRIDDGIPVMLVDESIAWPPAEKAAALEHHHHHH”, “not soluble”. As for “MGVVHDVWRATKELLEATALPWPSEEREERLAAVDRLLREREELLRKLRPPYSEEEQELGREIIVWNQEIEARLLRVCEEIRRDLRMTGAKRQANARYVHPYEQPLSFDGMFYDKRR”, the entry is “not soluble”; as for “MNARSTRFTQDEVLDLIIVGGGINGAGIAADATGRGLKVGLYDAKDFASATSSASSKLVHGGLRYLEHYEFRLVSEALAEREVLLKKAPHIVTPMRFRLPHRPFLRPAWMIRAGLFLYDNLGKRTSLPASHKVNLKAGSVTKPEMQIGFEYSDCWVDDARLVILNAMQAQEQGAEVLNYCTVEKAERMGDLWHVTLLDEQTQQRFERRSHALVNAAGPWVKQFLNENAHVSSPYGIRLIQGSHIIVPRIHDEPQAYILQNEDKRIVFVIPYLDDYSMIGTTDVEYKGDPRKVAITDAERDYLISIVNKHFMREIARSDIIAEFSGVRPLCDDESNSPQAITRDYTLSLDQQADEAPLLSIFGGKLTTYRKLGEAAMKHLAPFFPKMKAPWTADAPLPGGENFDYAALKNQLVAAFPFITESVIERWLRSYGSRTTQLLAGVTGIEDLGIAFSGELYQREIDYLCEKEFARHAQDIFWRRSKLGLNHDTSVVEEVESYLQQKFHAEQPLKATVLEHHHHHH”, “soluble”; as for “KDQIPIILIHGSGGNASSLDKMADQLMNEYRSSNEALTMTVNSEGKIKFEGKLTKDAKRPIIKFGFEQNQATPDDWSKWLKIAMEDLKSRYGFTQMDGVGHSNGGLALTYYAEDYAGDKTVPTLRKLVAIGSPFNDLDPNDNGMDLSFKKLPNSTPQMDYFIKNQTEVSPDLEVLAIAGELSEDNPTDGIVPTISSLATRLFMPGSAKAYIEDIQVGEDAVHQTLHETPKSIEKTYWFLEKFKTDETVIQLDYK”, “soluble”. With “MGSDKIHHHHHHMSVSIIDRLQAIFQDVRVSEFMNPDVIYVTPDKTLLHVKEIMRIKRISGVPVVDDKKRVVGIVSLEDIIKALEGSYIKDSVEKRMTKNVVCLKETDTLQDAVKTFEKYGYGRFPVVDDEGKLVGIVTKHDIIYFLLAKLGIMYLHDKRMEEVLEKGTSLITGEVLEKGKADFVFHIDYFDVNMIGIGASKLKRFLLERGVDEELARRIAIATYEAEANVVIHSESDGYIYCFIDNEKITVRVEDRGKGIENLELAMREGYSTAPDHIRELGFGAGMGLPNMKRYSDKMVIISEVGKGVIVEMVFFRRDRGEDKGDSGKTGA”, the “soluble on expression in E. coli” value is “not soluble”.

Take “RQLKVGQLVLSATPLPSLDEQARSLALVNLVRRKGIELLPWNPELRQWQARVDMLRQLDIQNGQAESKWPDLSDTSLLETLEK”: the “soluble on expression in E. coli” value was “not soluble”.

Regarding “DIHPYSVSYSWDKQVEDEDHMEVFPAGSSFPSTKLITLNRTGDFSMAASYTDITQLPPNTPEQIANWEITGVQLPEGQDSVPVKLKLRCDPSGLHTIEEAYTIEDIEVEEPIPLPEDAPEDAEQEFKKVTKTVKKDDLTIVAHTFGLDAKKLNELIEKENEMLAQDKLVAETEDRKNTLE”, the “soluble on expression in E. coli” value is recorded as “not soluble”. For the sequence “MAHHHHHHMAISATGTLAVLKVYQLTDAAARLSRAEVDAALEELMGLRVNDSLVQYLSYCYVPPHRVVLVMQYVPGGTLREMKSRYGRKLPLTAVRRNVASMLRGLAHLHGRGVIHGRLCPENVMVGVEGRWRLKGMLLGAAPLIMHQETYYVSPEVAAGGAKTAANDVYALGLLLLAMLTDSHPWQWSANAALDRSRKELDSLLADSTAFREALRNGLLTPVPTPADTDETLRTVLEACLRTAPGDRPTALRLQELRCDRTS”, the “soluble on expression in E. coli” value is on record as “not soluble”. In the case of “MGSDKIHHHHHHMFNESDAPQPPKVLSTPLEIAANLRQLQESHDPLIITFHDRSHRFQSYVVHVDRESNTLALDEMIPRDGEKFIENGEHFRVEGFHDGVRIAWECDHALKISEVDGHRCYSGPLPQEVTYHQRRNAFRAALKLSQLVDIILDGAHLKGNGAMRGKLLDISATGCKLRFEGNVEDRLQLGQVYERFKAGNPLGLVDTMVELRHLHYEERINTTFAGVRFHNLSGQAQRKIESFVYQLQREARRFDKDDY” it was “not soluble”. In the case of “MSNDVYIIGAGETKFGELWDKSLRDLAVEAGLEAIKDANIYSKDLQMLYASNSLAGTINEQSNIAALAADFSGIAENHVPAVRVEASTASGGAAVREAYLAIKSGEYDVVMVGGVEKMTDIYGTEIIDVQSSILDREWESFNGATPAAMAAIAARRYMHDFNVEREAISMVAVNDHANASLNPDAQYRNKITVDQVLNSDPVAEPLNVFDCSPITDGASAIILASEGFVKKNRIDGVRIL” it was “not soluble”. As to “GISPNVLNNMKSYMKHSNIRNIIINIMAHELSVINNHIKYINELFYKLDTNHNGSLSHREIYTVLASVGIKKWDINRILQALDINDRGNITYTEFMAGCYRWKNIESTFLKAAFNKIDKDEDGYISKSDIVSLVHDKVLDNNDIDNFFLSVHSIKKGIPREHIINKISFQEFKDYMLSTF”, the “soluble on expression in E. coli” value is given as “soluble”.

On to “MANVSLNKVDKQALVHQPNLLRECFALLVNAHYQTSPNDLLHLLRDDNSSVYLAMDKQNIIGVILTVEEGGLDDELIEAIQLGQRRPKGHLTPITIINQLGLVKVGKLITSRVMRIAVHPDLQGSGIGKRMLTLLEESVGAHVDYLSTSFGATDELIQFWQQAGYQSIRLGTMRDAASGCYSLLMVRQLANKSQ”, for which the “soluble on expression in E. coli” value is “not soluble”. In the case of “MAELNFKAIEEKWQKRWLEAKIFEPNIRDKPKEKKFYITVAFPYLSGHLHVGHARTYTIPDVIARFKRMQGYNVLFPMAWHITGSPIVGIAERIKNRDPKTIWIYRDVYKVPEEILWTFEDPINIVKYFMKAAKETFIRAGFSVDWSREFYTTSLFPPFSKFIEWQFWKLKEKGYIVKGAHRVRWDPVVGTPLGDHDLMEGEDVPILDYIIIKFELRENGEVIYLPAATLRPETVYGVTNMWVNPNATYVKAKVRRKDKEETWIVSKEAAYKLSFQDREIEVIEEFKGEKLIGKYVRNPVSGDEVIILPAEFVDPDNATGVVMSVPAHAPFDHVALEDLKRETEILEKYDIDPRIVENITYISLIKLEGYGDFPAVEEVNKLGIKSQKDKEKLEQATKTIYKAEYHKGIFKVPPYEGKPVQEVKEAIAKEMLEKGIAEIMYEFAEKNVISRFGNRAVIKIIHDQWFIDYGNPEWKEKARKALERMKILPETRRAQFEAIIDWLDKKACARKIGLGTPLPWDPEWVIESLSDSTIYMAYYTISRHINKLRQEGKLDPEKLTPEFFDYIFLEEFSEDKEKELEKKTGIPAEIIHEMKEEFEYWYPLDWRCSGKDLIPNHLTFFIFNHVAIFREEHWPKGIAVNGFGTLEGQKMSKSKGNVLNFIDAIEENGADVVRLYIMSLAEHDSDFDWRRKEVGKLRKQIERFYELISQFAEYEVKGNVELKDIDRWMLHRLNKAIKETTNALEEFRTRTAVQWAFYSIMNDLRWYLRRTEGRDDEAKRYVLRTLADVWVRLMAPFTPHICEELWEKLGGEGFVSLAKWPEPVEEWWNETIEAEEEFIRSVMEDIKEIIEVAKIENAKRAYIYTAEDWKWKVAEVVSEKRDFKSSMEELMKDSEIRKHGKEVAKIVQKLIKERTFDVKRINEEKALREAKEFMEKELGIEIIINPTEDKGGKKKQAMPLKPAIFIE” it was “soluble”. As for “MGSDKIHHHHHHMHQTILHAFSQHAASCYPNECCGLLIRQGNKAQYVKCENKATNKADEFVIDPQQYADIEELGAIIGICHSHPDASSKPSDRDRAMCEASGLPWHILSWPDGDLRTIVPTGERKSLLNRPFVHGVWDCYSCVRDWYSEVQQIHLPDFARQDGWWEGEQELYLDNFAKAGFVALPNINLADLQIGDVFLMQIQSQRVNHAAVYVGEGKILHHLYGRLSRYDIYGGYWQRNTRLIVRHCQ”, the entry is “not soluble”; as for “MYTAENAPGVAVLLSGDADVPGPLTGLPTHQDNLDTVIGRYSRLIVVGADADLGAVLTRLLRTDRLDVEVGYVPRRRSPATRAYRLPAGRRAARRARCGVARRVPLIRDETGSVIVGRAQWLPAEEQALIHGEAVVDDTVLFDGDVAGVCIEPTLTLPGLRAAVDGAGKWRRWIGGRAAQLGTTGAAVLRDGVAAPRPVRRSTFYRNVEGWLLVR”, “soluble”.

For the origin of these results see the DeepSol protein solubility set.
